Data reported in patent CN110420334A, “一种药物缀合物和提高药物分子半衰期的方法” (Jiangnan University, priority 2019, dated 2019).
Read-outs that look alike come from different tables or passages of the source. Non-standard residues stand in square brackets, D forms with d. No end group written: not given here. pGlu = O=C1CC[C@@H](C(=O)O)N1

What was measured:
CD13 = target: T1, CD13 (Homo sapiens, UniProt P15144); test: Competitive flow cytometry against fluorescent anti-CD13 antibody (Example 5); format: binding; details: HUVEC (CD13 high), 250nM, on ice 1h
T1 construct: HUVEC(CD13高表达)，MCF7(CD13不表达); endogenous in cells; host or cells: HUVEC (positive), MCF7 (negative)
T1 sequence (P15144 whole entry): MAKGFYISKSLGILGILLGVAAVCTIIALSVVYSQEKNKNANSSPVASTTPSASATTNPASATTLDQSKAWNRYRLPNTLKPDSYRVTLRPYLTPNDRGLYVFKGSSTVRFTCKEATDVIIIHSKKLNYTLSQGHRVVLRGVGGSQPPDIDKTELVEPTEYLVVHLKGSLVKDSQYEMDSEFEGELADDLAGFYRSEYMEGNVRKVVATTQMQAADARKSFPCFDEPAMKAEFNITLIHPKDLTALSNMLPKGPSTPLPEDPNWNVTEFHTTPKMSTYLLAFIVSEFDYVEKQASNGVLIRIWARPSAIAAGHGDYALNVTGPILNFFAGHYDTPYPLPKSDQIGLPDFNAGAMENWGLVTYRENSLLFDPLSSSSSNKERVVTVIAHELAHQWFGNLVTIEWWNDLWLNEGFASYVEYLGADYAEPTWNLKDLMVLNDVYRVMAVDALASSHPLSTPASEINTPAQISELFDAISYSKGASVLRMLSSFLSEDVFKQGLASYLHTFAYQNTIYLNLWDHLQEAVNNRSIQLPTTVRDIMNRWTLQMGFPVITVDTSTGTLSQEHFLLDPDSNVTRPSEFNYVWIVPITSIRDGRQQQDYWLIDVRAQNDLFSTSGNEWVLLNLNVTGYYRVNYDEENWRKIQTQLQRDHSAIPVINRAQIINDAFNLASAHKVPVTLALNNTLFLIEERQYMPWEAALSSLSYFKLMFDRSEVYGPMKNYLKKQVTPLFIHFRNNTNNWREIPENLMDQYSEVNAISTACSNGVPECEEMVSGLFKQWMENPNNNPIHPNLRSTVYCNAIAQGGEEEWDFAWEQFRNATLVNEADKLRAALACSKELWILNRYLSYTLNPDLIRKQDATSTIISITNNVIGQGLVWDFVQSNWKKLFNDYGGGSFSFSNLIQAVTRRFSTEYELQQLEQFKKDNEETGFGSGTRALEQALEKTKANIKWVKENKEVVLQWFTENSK

LHRH受体 = target: T2, LHRH受体 (Homo sapiens, UniProt P30968); test: Competitive flow cytometry against fluorescent anti-LHRH receptor antibody (Example 4); format: binding; details: MCF7 (LHRH high), 250nM, on ice 1h
T2 construct: MCF7(LHRH高表达)，UCI107(LHRH不表达); endogenous in cells; host or cells: MCF7 (positive), UCI107 (negative)
T2 sequence (P30968 1-328): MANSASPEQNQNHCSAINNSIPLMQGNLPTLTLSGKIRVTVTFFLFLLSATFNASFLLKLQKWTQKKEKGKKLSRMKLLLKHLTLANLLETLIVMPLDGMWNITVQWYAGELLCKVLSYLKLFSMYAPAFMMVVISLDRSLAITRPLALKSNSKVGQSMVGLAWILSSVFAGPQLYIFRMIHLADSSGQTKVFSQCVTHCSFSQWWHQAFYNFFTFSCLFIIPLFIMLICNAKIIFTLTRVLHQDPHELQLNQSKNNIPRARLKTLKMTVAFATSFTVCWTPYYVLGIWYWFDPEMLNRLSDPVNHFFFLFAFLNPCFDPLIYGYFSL

[1] = mouse, in vivo

Substance | competitive inhibition of anti-CD13 antibody binding to HUVEC (CD13) | competitive inhibition of anti-LHRH receptor antibody binding to LHRH receptor (LHRH受体) | serum half-life [1] [min] | serum half-life ([1]; iv) [min]
NGR-DNP: cyclic NGR peptide (chain GGGCNGRC) coupled with DNP by amide condensation (not fully specified (bridges); cysteine pairing not given here; also: DNP conjugated by amide condensation, position not given here) | 竞争性抑制 | – | – | –
Glp-His-Trp-Ser-Tyr-D-Lys-Leu-Arg-Pro-Gly-NH2 (chain 1 [pGlu]HWSY; chain 2 [dK]LRPG-NH2; numbers in words are those of the source; also: chains 1 and 2 are one continuous chain (Tyr-D-Lys peptide bond)) [LHRH] | – | 竞争性抑制 | 2.2 | 2.6
